Measurements published in patent US6455314 (GENVEC, dated 2002).

T1: coxsackievirus and adenovirus receptor (CAR) (UniProt P78310 20-365)
T1 sequence: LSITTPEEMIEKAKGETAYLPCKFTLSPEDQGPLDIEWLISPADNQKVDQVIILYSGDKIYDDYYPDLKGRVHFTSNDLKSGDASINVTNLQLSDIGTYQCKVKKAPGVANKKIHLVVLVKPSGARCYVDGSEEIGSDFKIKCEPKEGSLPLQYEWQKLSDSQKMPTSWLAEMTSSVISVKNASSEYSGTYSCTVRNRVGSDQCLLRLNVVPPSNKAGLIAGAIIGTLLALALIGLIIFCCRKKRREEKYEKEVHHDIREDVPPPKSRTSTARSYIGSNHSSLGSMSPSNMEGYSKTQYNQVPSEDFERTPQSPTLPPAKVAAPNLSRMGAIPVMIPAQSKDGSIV

B1: native Ad5 fiber knob (ligand)
chain: GAITVGNKNNDKLTLWTTPAPSPNCRLNAEKDAKLTLVLTKCGSQILATVSVLAVKGSLAPISGTVQSAHLIIRFDENGVLLNNSFLDPEYWNFRNGDLTEGTAYTNAVGFMPNLSAYPKSHGKTAKSNIVSQVYLNGDKTKPVTLTITLNGTQETGDTTPSAYSMSFSWDWSGHNYINEIFATSSYTFSYIAQE
B2: Ad5-2 mutant Ad5 fiber knob P409A (ligand)
chain: GAITVGNKNNDKLTLWTTPAPSANCRLNAEKDAKLTLVLTKCGSQILATVSVLAVKGSLAPISGTVQSAHLIIRFDENGVLLNNSFLDPEYWNFRNGDLTEGTAYTNAVGFMPNLSAYPKSHGKTAKSNIVSQVYLNGDKTKPVTLTITLNGTQETGDTTPSAYSMSFSWDWSGHNYINEIFATSSYTFSYIAQE
B3: Ad5-5 mutant Ad5 fiber knob K(420)A (ligand)
chain: GAITVGNKNNDKLTLWTTPAPSPNCRLNAEKDAALTLVLTKCGSQILATVSVLAVKGSLAPISGTVQSAHLIIRFDENGVLLNNSFLDPEYWNFRNGDLTEGTAYTNAVGFMPNLSAYPKSHGKTAKSNIVSQVYLNGDKTKPVTLTITLNGTQETGDTTPSAYSMSFSWDWSGHNYINEIFATSSYTFSYIAQE
B4: Ad5-4 mutant Ad5 fiber knob K(417)G (ligand)
chain: GAITVGNKNNDKLTLWTTPAPSPNCRLNAEGDAKLTLVLTKCGSQILATVSVLAVKGSLAPISGTVQSAHLIIRFDENGVLLNNSFLDPEYWNFRNGDLTEGTAYTNAVGFMPNLSAYPKSHGKTAKSNIVSQVYLNGDKTKPVTLTITLNGTQETGDTTPSAYSMSFSWDWSGHNYINEIFATSSYTFSYIAQE
B5: Ad5-9 mutant Ad5 fiber knob EGTAY(487-491)GGGGG (ligand)
chain: GAITVGNKNNDKLTLWTTPAPSPNCRLNAEKDAKLTLVLTKCGSQILATVSVLAVKGSLAPISGTVQSAHLIIRFDENGVLLNNSFLDPEYWNFRNGDLTGGGGGTNAVGFMPNLSAYPKSHGKTAKSNIVSQVYLNGDKTKPVTLTITLNGTQETGDTTPSAYSMSFSWDWSGHNYINEIFATSSYTFSYIAQE
B6: Ad5-1 mutant Ad5 fiber knob S408E (ligand)
chain: GAITVGNKNNDKLTLWTTPAPEPNCRLNAEKDAKLTLVLTKCGSQILATVSVLAVKGSLAPISGTVQSAHLIIRFDENGVLLNNSFLDPEYWNFRNGDLTEGTAYTNAVGFMPNLSAYPKSHGKTAKSNIVSQVYLNGDKTKPVTLTITLNGTQETGDTTPSAYSMSFSWDWSGHNYINEIFATSSYTFSYIAQE
B7: Ad5-3 mutant Ad5 fiber knob RLNAEK(412-417)SLNGGG (ligand)
chain: GAITVGNKNNDKLTLWTTPAPSPNCSLNGGGDAKLTLVLTKCGSQILATVSVLAVKGSLAPISGTVQSAHLIIRFDENGVLLNNSFLDPEYWNFRNGDLTEGTAYTNAVGFMPNLSAYPKSHGKTAKSNIVSQVYLNGDKTKPVTLTITLNGTQETGDTTPSAYSMSFSWDWSGHNYINEIFATSSYTFSYIAQE
B8: Ad5-8 mutant Ad5 fiber knob Y(477)A (ligand)
chain: GAITVGNKNNDKLTLWTTPAPSPNCRLNAEKDAKLTLVLTKCGSQILATVSVLAVKGSLAPISGTVQSAHLIIRFDENGVLLNNSFLDPEAWNFRNGDLTEGTAYTNAVGFMPNLSAYPKSHGKTAKSNIVSQVYLNGDKTKPVTLTITLNGTQETGDTTPSAYSMSFSWDWSGHNYINEIFATSSYTFSYIAQE

target: T1, coxsackievirus and adenovirus receptor …; assay: cell-based or functional assay

| Molecule | Competition (from IC50 of blocking Ad5-lacZ transduction of A549 cells, β-galactosidase activity) [%] |
| --- | --- |
| B1 | 100 |
| B2 | < 1 |
| B3 | < 0.1 |
| B4 | < 0.1 |
| B5 | < 0.1 |
| B6 | < 0.1 |
| B7 | < 0.1 |
| B8 | < 0.1 |

target: coxsackievirus and adenovirus receptor (CAR) (UniProt P78310); assay: cell-based or functional assay

| Molecule | Competition (from IC50 of blocking Ad5-lacZ transduction of A549 cells, β-galactosidase activity) [%] |
| --- | --- |
| Ad5-7 mutant Ad5 fiber knob, deletion DPEY(474-477) (from UniProt P11818 387-581) (ligand) | < 0.1 |
| Ad5-10 mutant Ad5 fiber knob, deletion TAYT(489-492) (from UniProt P11818 387-581) (ligand) | < 0.1 |
| Ad5-6 mutant Ad5 fiber knob, deletion DPE(474-476) (from UniProt P11818 387-581) (ligand) | < 20 |
| F3K (native) (from UniProt P04501 119-319) (ligand) | < 0.1 |
